Test results from patent US20130202646A1, “COMPOSITIONS AND METHODS FOR MODULATING AUTOPHAGY” (SAN DIEGO STATE UNIVERSITY (SDSU) FOUNDATION, priority 2010, published 2013).

Assays:
[1] = test system: HL-1 cells; assay: Autophagy scored by intracellular distribution of GFP-LC3 (fluorescence microscopy) in HL-1 cells; format: cell-based, murine; conditions: for modulation of autophagy: HL-1 cells transfected with LC3GFP, treated with Tat protein (FIG. 18)
[2] = test system: HL-1 cells; assay: Protection in cell culture by recombinant Tat-Beclin1; format: cell-based
[3] = test system: adult rat cardiomyocytes; assay: Autophagy (GFP-LC3 puncta) in adult rat cardiomyocytes; format: cell-based; conditions: Tat protein 30 min before CCPA
[4] = test system: isolated perfused rat hearts; assay: Langendorff global ischemia/reperfusion injury in isolated perfused rat hearts (CK release, TTC infarct size, hemodynamics)
[5] = test system: isolated perfused rat hearts; assay: Autophagy in isolated perfused rat hearts (LC3-II/LC3-I Western blot, cadaverine dye binding); conditions: Tat protein approximately 200 nM before SUL
[6] = test system: adult rat cardiomyocytes
[7] = test system: HL-1 cells; assay: Cell death by LDH release after simulated ischemia/reperfusion (sI/R) in HL-1 cells; format: cell-based, murine
Protocol: Cells of the murine atrial-derived cardiac cell line HL-1^16 were plated in gelatin/fibronectin-coated culture vessels and maintained in Claycomb medium^16 (JRH Biosciences, Lenexa, Kans.) supplemented with 10% fetal bovine serum, 0.1 mm norepinephrine, 2 mm […], 100 U·mL^-1 penicillin, 100 U·mL^-1 streptomycin, and 0.25 μg·mL^-1 amphotericin B. Cells were plated in 14-mm diameter glass bottom microwell dishes (MatTek), and ischemia was introduced by a buffer exchange to ischemia-mimetic solution (in mM: 20deoxyglucose, 125 NaCl, 8 KCl, 1.2 KH2PO4, 1.25 MgSO4, 1.2 CaCl2, 6.25 NaHCO2, 5 sodium lactate, 20 HEPES, pH 6.6) and placing the dishes in hypoxic pouches (GasPakTM EZ, BD Biosciences) equilibrated with 95% N2, 5% CO2. After 2 hr of simulated ischemia, reperfusion was initiated by a buffer exchange to normoxic MKH buffer and incubation at 95% room air, 5% CO2. […] Protein content and LDH activity were determined according to El-Ani et al.^20. Briefly, 25 μl supernatants from 35 mm dishes were transferred into wells of a 96-well plate, and the LDH activities were determined with an LDH-L kit (Sigma), according to the manufacturer. The product of the enzyme was measured spectrophotometrically at 30° C. at a wavelength of 340 nm as described previously^21. […]

Molecule	modulation of autophagy [1]	protection [2]	effect on autophagy [3]	effect on protection by sulfaphenazole given at reperfusion (infarct size) ([4]; FIG. 17, 3 hearts per condition)	infarct size ([4]; absence of SUL, vehicle control 38.5%, p=NS)	infarct size ([4]; pretreatment with Tat-Atg5^K130R, then SUL infusion)	effect on autophagy induced by SUL (LC3-II/I ratio, cadaverine dye binding) [5]	effect on protection by CCPA (LDH release) ([6]; Tat protein 30 min before CCPA, then simulated ischemia)	LDH release under normoxic conditions ([6]; absence of CCPA, normoxia)	injury from sI/R ([6]; absence of CCPA, sI/R)	autophagy ([1]; transient transfection, co-transfected with GFP-LC3 (FIG. 6))	effect on autophagy in the second window of protection ([1]; with CCPA 10 min, washout, 20-24 hr later)	effect on cytoprotection by CCPA (LDH release) ([7]; inhibitor plus CCPA, then sI/R (2 hr sI, 3 hr R))	effect on cytoprotection by CCPA in the second window of protection (LDH release) ([7]; with CCPA 10 min, washout, sI/R 20-24 hr later)
Tat-Beclin1: cell-permeable recombinant Tat fusion of rat Beclin 1; stimulant or activator of autophagy (protein) MRGSHHHHHHGMASMTGGQQMGRDLYDDDDKDRWGSKLGYGRKKRRQRRRGGSTMSGYPYDVPDYAGSMAGTGLEMEGSKASSSTMQVSFVCQRCSQPLKLDTSFKILDRVTIQELTAPLLTTAQAKPGESQEEEANSGEEPFIETRQDGVSRRFIPPARMMSTESANSFTLIGEASDGGTMENLSRRLKVTGDLFDIMSGQTDVDHPLCEECTDTLLDQLDTQLNVTENECQNYKRCLEMLEQMNEGDSEQLQRELKELALEEERLIQELEDVEKNRKVVAENLEKVQAEAERLDQEEAQYQREYSEFKRQQLELDDELKSVENQMRYAQMQLDKLKKTNVFNATFHIWHSGQFGTINNFRLGRLPSAPVEWNEINAAWGQTVLLLHALANKMGLKFQRYRLVPYGNHSYLESLTDKSKELPLYCSGGLRFFWDNKFDHAMVAFLDCVQQFKEEVEKGETRFCLPYRMDVEKGKIEDTGGSGGSYSIKTQFNSEEQWTKALKFMLTNLKWGLAWVSSQFYNK	stimulates autophagy	protection in cell culture	–	–	–	–	–	–	–	–	–	–	–	–
Tat-Atg5^K130R: Atg5^K130R expressed as a fusion protein with the protein transduction domain derived from HIV Tat; cell-permeable dominant negative inhibitor of autophagy (protein, synthetic peptide or nucleic acid) MRGSHHHHHHGMASMTGGQQMGRDLYDDDDKDRWGSKLGYGRKKRRQRRRGGSTMSGYPYDVPDYAGSMAGTMTDDKDVLRDVWFGRIPTCFTLYQDEITEREAEPYYLLLPRVSYLTLVTDKVKKHFQKVMRQEDVSEIWFEYEGTPLKWHYPIGLLFDLLASSSALPWNITVHFKSFPEKDLLHCPSKDAVEAHFMSCMREADALKHKSQVINEMQKKDHKQLWMGLQNDRFDQFWAINRKLMEYPPEENGFRYIPFRIYQTTTERPFIQKLFRPVAADGQLHTLGDLLREVCPSAVAPEDGEKRSQVMIHGIEPMLETPLQWLSEHLSYPDNFLHISIVPQPTD	inhibits autophagy	–	suppressed autophagy	protection is lost	42.0%	30 % of the area at risk	potently suppressed autophagy induced by SUL	eliminated the protection by CCPA	did not increase LDH release	nor did it exacerbate injury from sI/R	–	–	–	–
Atg5^K130R: dominant negative point mutant of Atg5 delivered by transient transfection in HL-1 cells (protein, UniProt Q9H1Y0 1-275, looked up, variant K130R, mCherry fusion, dominant negative point mutant of Atg5 delivered by transient transfection in HL-1 cells) Autophagy protein 5: MTDDKDVLRDVWFGRIPTCFTLYQDEITEREAEPYYLLLPRVSYLTLVTDKVKKHFQKVMRQEDISEIWFEYEGTPLKWHYPIGLLFDLLASSSALPWNITVHFKSFPEKDLLHCPSKDAIEAHFMSCMREADALKHKSQVINEMQKKDHKQLWMGLQNDRFDQFWAINRKLMEYPAEENGFRYIPFRIYQTTTERPFIQKLFRPVAADGQLHTLGDLLKEVCPSAIDPEDGEKKNQVMIHGIEPMLETPLQWLSEHLSYPDNFLHISIIPQPTD	–	–	–	–	–	–	–	–	–	–	effectively suppressed autophagy	suppressed autophagy in the second window of protection	eliminated the protective effects of CCPA after sI/R	abolished the cytoprotective effect of CCPA
